From PMC3338484 come the findings set out here.

In the data set the test system is T1, Nc1nc2c(c(=O)[nH]1)N1CN(c3ccc(C(=O)NC(CCC(=O)O)C(=O)O)cc3)CC1CN2.
T1 construct: hexa-histidine tag with TEV protease site (N, cleaved yes); made in house; host or cells: E. coli BL21 (DE3)
In words: FolD enzyme assay (absorbance at 350 nm), IC50 determination. Type of data set: biochemical, Pseudomonas aeruginosa. The settings on record: other: 1 nM PaFolD, end-point assay; other substrate saturating; mean ± SD (n = 4); pH 7.9. On the procedure:
Enzyme activity was assayed by measuring the absorbance at 350 nm of the intermediate product in the reaction, N ^5,N ^10-methenyl-THF, following acidification of the reaction and consequent reconversion of the final product formyl-THF to the intermediate. Following optimization of the assay buffer and determination of the enzyme linearity, assays were carried out at room temperature in a 50 µL reaction volume containing 25 mM bicine, pH 7.9, 1 mM dithiothreitol, 0.05% CHAPS, 0.2 mg mL^−1 BSA, 1 nM recombinant FolD, […] NADP^+ and 35 µM N ^5,N ^10-methylene-THF. Michaelis constants for the two substrates (NADP^+ and N ^5,N ^10-methylene-THF) were determined in an end-point assay, using these buffer and enzyme conditions.
The HTS was performed with a compound collection of 79,029 diverse structures based around 4000 chemical scaffolds. All compounds were dissolved in 100% DMSO to a concentration of 3 mM. Single point inhibition assays were carried out at room temperature in clear, flat bottom, polystyrene, 384-well plates (Matrix). Each assay was performed in a 50 µL reaction volume as described above. […] The FolD assay was run at room temperature for 20 min and the signal was allowed to develop for 10 min before the absorbance of each well was read at 350 nm using an EnVision multilabel plate reader (PerkinElmer Life Sciences). […]

In general, Km refers to the concentration of substrate that gives half-maximal velocity. PaFolD (Pseudomonas aeruginosa PAO1): the Km turned out to be 26 ± 4 µM.
